According to US20110052597A1:

Columns and labels:
[1] = biological target: N-terminal FLAG-tagged fusion protein including most of the extracellular region of human IL-13Rα1 (human) (UniProt P78552); test: BIACORE, receptor ECR immobilized on CM5 chip, mAb in solution
[2] = biological target: T1, cynomolgus IL-13Rα1.ECR, N-terminal FLAG-tagged fusion protein (cynomolgus macaque); test: as above
T1 sequence: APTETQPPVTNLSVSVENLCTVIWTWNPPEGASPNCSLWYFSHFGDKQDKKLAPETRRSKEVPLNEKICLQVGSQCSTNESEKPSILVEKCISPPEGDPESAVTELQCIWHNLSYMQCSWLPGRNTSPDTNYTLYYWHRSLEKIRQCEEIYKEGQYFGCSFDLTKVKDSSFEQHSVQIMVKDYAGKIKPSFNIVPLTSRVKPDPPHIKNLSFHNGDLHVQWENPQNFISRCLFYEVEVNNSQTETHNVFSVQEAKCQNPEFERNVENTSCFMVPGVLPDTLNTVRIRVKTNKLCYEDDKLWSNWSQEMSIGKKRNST

- Kd [1]: 0.207 nM
- Kd [2]: 0.247 nM
B1: murine antibody 1D9 reported in WO 03/080675 (ECACC deposit 03032101) (antibody, from another filing, V domains shown)
VH: EVKLVESGGGLVKPGGSLKLSCAASGFTFSGYGMSWVRQTPEKRLEWVATISGLGGYTYYPDSVKGRFTISRDNAKNTLYLQMSSLRSDDTAFYYCARRFYGDYVGAMDYWGQGTSVTVSS
VL: DILMTQAAFSNPVTLGTSASISCRSSKSLLHSNGITYLYWYLQKPGQSPQLLIYQMSNLASGVPDRFSCSGSGTDFTLSISRVEAEDVGFYYCAQNLELPFTFGSGTKLEIE
